Laboratory results published in the supplement of paper PMC10724198.
± gives the standard deviation of the averaged measurements.

Tested on: Saccharomyces cerevisiae
Experiment: protein stability index of tFT-peptide fusion (C-terminal peptide) (PSI (0-1 scale)); higher = more stable (slower turnover)
Conditions: genetic background: wild type; temperature: 30 C
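Further: PSI is a weighted mean of sequencing reads over stability bins, variants kept only with over 10 reads, mCherry proximal and sfGFP distal, peptide attached via GGGS linker.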

Row | Sequence | protein stability index
1 | THLPLPPPPPLL | 0.655 ± 0.022
2 | THPFLRTHPPVE | 0.714 ± 0.097
3 | THPPPGPHPSAA | 0.717 ± 0.017
4 | THSGRVRIVSFL | 0.654 ± 0.12
5 | THTDQKTNHRRQ | 0.69 ± 0.05
6 | TIAETIGCEKII | 0.785 ± 0.099
7 | TIETDIYAIARV | 0.659 ± 0.041
8 | TIGREENKIANI | 0.651 ± 0.016
9 | TILKLLSEELDK | 0.613 ± 0.025
10 | TISVNLYLPDLL | 0.677 ± 0.057
11 | TKDRIIMKKKKE | 0.7214 ± 0.0031
12 | TKHCRFCKSGFV | 0.7133 ± 0.0063
13 | TKIPVLLKNSAN | 0.704 ± 0.062
14 | TKIQFTITLIGK | 0.578 ± 0.028
15 | TKKKNKLRNKQE | 0.664 ± 0.048
16 | TKKKRKKKNTKK | 0.685 ± 0.061
17 | TKKNKTKKGQNK | 0.7099 ± 0.006
18 | TKRQKEKKKNKE | 0.735 ± 0.042
19 | TLCFRLGFLSYF | 0.604 ± 0.091
20 | TLDGGESSVVAV | 0.685 ± 0.025
21 | TLESRPALVFFS | 0.681 ± 0.0088
22 | TLGTSPPPAYLS | 0.638 ± 0.013
23 | TLPDSSSTSPNL | 0.696 ± 0.063
24 | TLPVPLPSVSHS | 0.685 ± 0.0098
25 | TLSHPANNKNNL | 0.681 ± 0.047

Row | Sequence | protein stability index
26 | TLSPAPPPPLPP | 0.636 ± 0.093
27 | TLSSGREVVGRW | 0.576 ± 0.012
28 | TLTLVIPTSRDQ | 0.717 ± 0.064
29 | TLWENEKNNKHG | 0.705 ± 0.024
30 | TMLLPPPNLATI | 0.71 ± 0.026
31 | TMRSVSLRSVAS | 0.675 ± 0.022
32 | TMVAVTSILGGL | 0.655 ± 0.084
33 | TNIITRHNKKDK | 0.657 ± 0.078
34 | TNTEEKRKIRRS | 0.697 ± 0.11
35 | TPAYTETNGLST | 0.73 ± 0.042
36 | TPDLNLYSKVYG | 0.695 ± 0.048
37 | TPEQMKIKRNVE | 0.69 ± 0.009
38 | TPFVPLAPLPRS | 0.728 ± 0.056
39 | TPGMCDRQFGVD | 0.685 ± 0.028
40 | TPHQPPPPRPSP | 0.7057 ± 0.0037
41 | TPIAGGAKLFHV | 0.646 ± 0.058
42 | TPKTRPRSRAVK | 0.748 ± 0.015
43 | TPKWRRRLNQGL | 0.719 ± 0.032
44 | TPPLPLPSPPCP | 0.7249 ± 0.0035
45 | TPPLPPSLSPTH | 0.708 ± 0.0085
46 | TPPPHNRTKTTT | 0.682 ± 0.072
47 | TPPPNTPSPLTI | 0.654 ± 0.033
48 | TPPSHTVGIWAS | 0.683 ± 0.039
49 | TPRTRPFNPPPR | 0.729 ± 0.023
50 | TPSIFNRTNGPK | 0.738 ± 0.043

Row | Sequence | protein stability index
51 | TPTSLPGPRVLS | 0.6596 ± 0.0054
52 | TQEQVQKKLLKS | 0.665 ± 0.015
53 | TQLEHQRESKSI | 0.672 ± 0.021
54 | TQNYPSAFAIPA | 0.552 ± 0.043
55 | TRDEGWSSAARK | 0.637 ± 0.062
56 | TRETKKSIKKQN | 0.673 ± 0.058
57 | TRFCDFTSSVTT | 0.711 ± 0.041
58 | TRGRGDGQLDSA | 0.699 ± 0.024
59 | TRGRGLSGGRFF | 0.658 ± 0.037
60 | TRNGQKVGGVGA | 0.725 ± 0.029
61 | TRNNDKQTDTIV | 0.729 ± 0.048
62 | TRPGKRNGRPPR | 0.6995 ± 0.0008
63 | TRPSGSFLALPP | 0.685 ± 0.05
64 | TRPTQNKQIKNI | 0.6141 ± 0.0032
65 | TRRLILSPIRHF | 0.636 ± 0.015
66 | TRSISPGTFWTS | 0.723 ± 0.018
67 | TRSSHSHLETFV | 0.684 ± 0.03
68 | TSGLGYVDCPKL | 0.709 ± 0.033
69 | TSGNSTALKMGR | 0.741 ± 0.059
70 | TSIDRLLIRYEK | 0.649 ± 0.12
71 | TSKHLTQRKESK | 0.659 ± 0.0082
72 | TSKRRRWGTTRK | 0.672 ± 0.074
73 | TSPQHPWPPAPL | 0.694 ± 0.06
74 | TSPSPPPTPCRS | 0.702 ± 0.018
75 | TSPTPFVSCSLP | 0.629 ± 0.044

Row | Sequence | protein stability index
76 | TSPVPPSTPAPP | 0.6686 ± 0.0045
77 | TSRNFPGLHDNY | 0.673 ± 0.052
78 | TSVAYVWRLFTE | 0.597 ± 0.016
79 | TSYEAKKKWQVI | 0.645 ± 0.025
80 | TSYNLPAAPHPV | 0.679 ± 0.037
81 | TTKNTSIKTKLK | 0.67 ± 0.026
82 | TTKTGQVEIYKV | 0.661 ± 0.033
83 | TTLSMYFCMCVL | 0.638 ± 0.14
84 | TTNGGPGNGAQN | 0.66543 ± 0.00044
85 | TTNLDKKILKTS | 0.6525 ± 0.0022
86 | TTPPFVSALPLS | 0.71142 ± 0.00043
87 | TTPTAPCLSSHD | 0.69 ± 0.042
88 | TTRLARNEQVKR | 0.62 ± 0.1
89 | TVAPNFIPTSTS | 0.662 ± 0.044
90 | TVFPPLPTLPCV | 0.792 ± 0.1
91 | TVLRMFPPRSIW | 0.67 ± 0.046
92 | TVPAKQHLSGYE | 0.679 ± 0.011
93 | TVQPGAVRFILF | 0.703 ± 0.028
94 | TVRKMEKKKDGG | 0.663 ± 0.012
95 | TVVVGHSRLVVG | 0.703 ± 0.027
96 | TVYSPAYSIIHQ | 0.584 ± 0.053
97 | TWGACGKMLSDR | 0.682 ± 0.026
98 | TWIEGGVDRQRG | 0.683 ± 0.074
99 | TWIKVPVERTRP | 0.683 ± 0.053
100 | TYIRRTICGVLS | 0.587 ± 0.021

Row | Sequence | protein stability index
101 | TYLCLLVRDNRG | 0.706 ± 0.012
102 | TYNVVKSMVDNK | 0.672 ± 0.026
103 | TYPRPGSSIWLR | 0.572 ± 0.022
104 | TYRLLAEPTPPA | 0.702 ± 0.018
105 | TYYCFYCHPSLL | 0.699 ± 0.057
106 | VAAFGGGATNGV | 0.736 ± 0.029
107 | VAGQISGLIYFR | 0.699 ± 0.044
108 | VAHSPLPLILPI | 0.629 ± 0.041
109 | VAPPRQGSPASR | 0.725 ± 0.057
110 | VARFRGGPVPSF | 0.67 ± 0.045
111 | VARGCNSVYGYA | 0.653 ± 0.012
112 | VASITEIRKKGR | 0.629 ± 0.022
113 | VATGVFADPMMC | 0.667 ± 0.11
114 | VAVCGTTNGKNA | 0.75 ± 0.033
115 | VAVGIVGGWWGV | 0.843 ± 0.11
116 | VAVIGAPPGNSR | 0.672 ± 0.029
117 | VAVRCVLWEGFS | 0.76 ± 0.084
118 | VAVSLFVPVLFL | 0.567 ± 0.061
119 | VAWTYDYTGVLR | 0.626 ± 0.037
120 | VCAASAGGARAG | 0.6213 ± 0.0025
121 | VCFVGSCFKLVL | 0.6324 ± 0.0032
122 | VCGGVWGGDNGG | 0.771 ± 0.049
123 | VCGLCGGFMGLA | 0.69 ± 0.042
124 | VCLFPDTMSWDC | 0.803 ± 0.075
125 | VCLVHSPFDTLP | 0.699 ± 0.037

Row | Sequence | protein stability index
126 | VCLVLGGVEWCV | 0.6861 ± 0.004
127 | VCRGRGVEGIGW | 0.695 ± 0.12
128 | VCSVLFPFLPLP | 0.7043 ± 0.0056
129 | VCSVVGGGYSWG | 0.686 ± 0.12
130 | VCVQECMPTAWR | 0.704 ± 0.036
131 | VDASGYDEQSVH | 0.6622 ± 0.0018
132 | VDNTRKRSTNSV | 0.694 ± 0.021
133 | VDSCASVGQGGL | 0.702 ± 0.044
134 | VDVPAGPGGGAC | 0.641 ± 0.077
135 | VDVWCGRGVGRG | 0.707 ± 0.031
136 | VEAIKTSMFFLW | 0.711 ± 0.055
137 | VEFWGAVCNDCL | 0.706 ± 0.043
138 | VEGGGYVVHSGG | 0.657 ± 0.066
139 | VEPLLGHPISRD | 0.702 ± 0.049
140 | VERRTDRNLGSV | 0.645 ± 0.007
141 | VFAPWLFLFGFF | 0.521 ± 0.017
142 | VFCGRVVVGSVV | 0.65745 ± 0.0006
143 | VFCSCTARPPLR | 0.717 ± 0.023
144 | VFCTFVGPRSDV | 0.775 ± 0.13
145 | VFESGRYLRVAP | 0.777 ± 0.05
146 | VFGAHGRYQDSR | 0.607 ± 0.054
